Test results: the supplement of paper PMC12042874
± gives the uncertainty stated by the source.

Test: amyloid nucleation score (Sup35N fusion, yeast selection) (log enrichment); library NNK1; higher = more nucleation; inactive = no reads after selection
Outline: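 On medium lacking adenine and uracil, psi-negative yeast expressing peptides of 20 random codons fused to Sup35N were grown 7 days at 30°C after a 24-hour induction with 100 μM copper sulfate. Illumina sequencing of input and output plasmid inserts gave the reads, and sequences under 100 input reads were excluded. The nucleation score is the DiMSum log enrichment of output over input reads, centred on the mode score of non-aggregating sequences.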

Row | Substance | amyloid nucleation score
1 | LIDRCWMAGRAFNLLMF | -0.331 ± 0.76
2 | LIELRIWLLHLPMYGVLESI | -0.758 ± 0.39
3 | LIFLKLSSIRYFLMGHY | 1.43 ± 0.25
4 | LIGFSRVSSGFSPFTPAHCR | 2.04 ± 0.14
5 | LIGIVKGTTVSRMGNTVIDR | inactive
6 | LIIRVWLKNQPDTLGKRRRE | -0.415 ± 1.4
7 | LIKRVQLFV | -0.284 ± 0.4
8 | LILLLFEGFLLP | 0.246 ± 0.63
9 | LILRLVHKLGLCVPLSGSRG | -0.827 ± 1.7
10 | LILRVSFN | 2.28 ± 0.16
11 | LINKNSSSAFCVMLGHYWVR | -1.03 ± 0.66
12 | LIPCGPLFLFMQTNIDRANM | 7.845 ± 0.044
13 | LISHPFDPLIKVGDIQMYSF | 0.012 ± 0.61
14 | LISLLGSISMGPCIVRVYN | -0.259 ± 0.48
15 | LISRIS | 0.303 ± 1
16 | LITMGMTRIYILMISDYLKF | 0.701 ± 0.51
17 | LIVMVKV | 0.111 ± 0.33
18 | LKELYG | 0.303 ± 0.65
19 | LKFNAP | -0.14 ± 1.4
20 | LKIKGGWVFVTSIW | -0.008 ± 0.35
21 | LKLYINIIVVNYNLLSICSH | -0.504 ± 0.24
22 | LKNSRYSKLFIESMTWWLVY | 0.087 ± 0.16
23 | LKNTVHWTADHFRVTSP | -0.623 ± 0.67
24 | LKRVQCNSDRAMWCVALVLT | 0.314 ± 0.59
25 | LKSLLNSSGVTLGEVLRMGV | -0.091 ± 0.45

Row | Substance | amyloid nucleation score
26 | LKSRGWYCFSNVTMYDLRME | 3.42 ± 0.067
27 | LKSSSCHQTSISHRALFCNL | -0.373 ± 1.2
28 | LKYPMGFPDRSL | -0.658 ± 1.1
29 | LKYTVPGLISPGFLGVVDYV | -0.624 ± 0.34
30 | LLALCCDSLRCYR | 0.282 ± 1.2
31 | LLALYCNDPKLEDSTLREFN | 1.15 ± 0.71
32 | LLAMFKFDNPHILFCSSILL | 5.62 ± 0.078
33 | LLCFIIILCSRELNVDA | 0.279 ± 1.2
34 | LLDLDVTLIRNHWWFKSLLA | -0.047 ± 0.41
35 | LLDMNANECYLPIWWQSEVT | 0.092 ± 0.96
36 | LLFSKRVLVSWGFDRGGSEE | 0.336 ± 0.57
37 | LLGNSLAVSFSFNSLVNHYS | 6.02 ± 0.063
38 | LLKVQGF | 1.13 ± 0.51
39 | LLLVCMHGSFAMYMPLNNRW | 0.922 ± 0.93
40 | LLMYLLHSCYNVMHCLCLNF | 0.128 ± 0.21
41 | LLNLHGSLMYLPSDLLGSHS | 0.156 ± 0.56
42 | LLNLYWFLSVPDTINLSHER | 8.087 ± 0.05
43 | LLQNNCHLYYCLNGLVFRVR | 0.162 ± 0.32
44 | LLRVTEYLIIRPCSVFVINR | -0.459 ± 0.36
45 | LLRWLFCFEWHDSNMSTNII | -1.76 ± 2.4
46 | LLSPLTRLYFRKFFSVGKAW | 0.353 ± 1.2
47 | LLSQVTCGMQTVRRNGGIIR | -0.195 ± 0.65
48 | LLSRFRNCNKFDVRQSLRQN | 5.328 ± 0.051
49 | LLVKNHMRSQEWPLKNSLTN | -1.24 ± 2.4
50 | LLVSGVRSRKTQRWSFRACS | 0.634 ± 0.7

Row | Substance | amyloid nucleation score
51 | LLVVRLNVCRRHMDFKYG | -0.419 ± 0.39
52 | LLVVVTLAI | 0.89 ± 0.51
53 | LLWRVSPSTLTSAIFKCLHS | -0.741 ± 0.86
54 | LLWTGY | 2.43 ± 0.099
55 | LMASDVT | 0.127 ± 0.43
56 | LMDAEFIMVFTL | 0.918 ± 0.2
57 | LMEIFLNLPPANKNSYNRR | -0.766 ± 2.4
58 | LMISGPYWR | -0.142 ± 0.56
59 | LMLRLRVLPVA | -0.234 ± 0.26
60 | LMQSCWSFHYNRLASLLRHT | -0.316 ± 0.88
61 | LMRDSCHDQQVLGCFYMSKL | -0.215 ± 1.2
62 | LMRHMFAWVDFIFSGSTQAC | 1.14 ± 0.97
63 | LMSLEHELRVKS | inactive
64 | LMTLLSSLSPAQSSLPT | 1.27 ± 0.8
65 | LNGNLVTMEGVLINNSFRVT | 0.394 ± 0.24
66 | LNGWIVEGLNNADLTRRRWV | 0.235 ± 0.6
67 | LNICGIWGGVVSEGARNVFY | 0.063 ± 0.33
68 | LNLVRLYVTSKCSLDATSVI | -0.444 ± 1.2
69 | LNNRE | 0.805 ± 0.78
70 | LNNYCCYIAKYVYWW | 6.089 ± 0.044
71 | LNRGYAGFSLN | -1.86 ± 1.1
72 | LNRLSFLV | 0.065 ± 1.2
73 | LNRVLMTIWCTPMSICTYDC | 3.89 ± 0.12
74 | LNSGASMLWQTLSYPMSRVR | -0.506 ± 1.2
75 | LNSIMQIQVWIFTLEMMSPM | -1.07 ± 0.98

Row | Substance | amyloid nucleation score
76 | LNTQVRVGDKVCLRIFARLL | 0.944 ± 0.9
77 | LNVNRWYTISL | 0.972 ± 0.25
78 | LNWVLFADLLWPR | 0.212 ± 0.57
79 | LPAGSDVCLY | 3.23 ± 0.13
80 | LPDIGCFPRTIGCMTQAECG | -0.381 ± 1
81 | LPFSLFSLD | 0.308 ± 0.42
82 | LPHYNMLSPRIIRTLVVERF | 0.694 ± 1.1
83 | LPPARIFEGRSICYFVWYLP | 0.232 ± 0.7
84 | LPSNFCVKLSSTYYQVFG | -2.37 ± 1.8
85 | LPSSSPMTRR | -0.837 ± 1.7
86 | LPTIHICLRSAHTRWFA | -0.438 ± 0.87
87 | LPVFELSHTHSVKSLDGNGQ | -0.308 ± 0.33
88 | LQERWMAMGGGGQGVVWGFT | 0.305 ± 0.79
89 | LQGSVIYLNIKSLGEGVWLF | 3.44 ± 0.17
90 | LQIYCAPGFV | 0.38 ± 1.2
91 | LQKFMLV | 0.638 ± 0.53
92 | LQKIMQKISPIFRNRIYVRR | -0.327 ± 0.48
93 | LQKRANNRRC | -0.372 ± 0.5
94 | LQPNLMEGAMSSGGTEEVTV | -0.565 ± 1.4
95 | LQTIYFLYE | 2.25 ± 0.13
96 | LQYGGQVISLNNR | 1.97 ± 0.72
97 | LRALSYWIPARTPIVEGYAK | -0.333 ± 0.32
98 | LRCSLDGFFGLDWLANLILD | -0.115 ± 0.23
99 | LREECKVAWYLNGDCVVYCK | inactive
100 | LRENPQLGVVTGLTLGSDLP | 0.19 ± 0.5

Row | Substance | amyloid nucleation score
101 | LRFPLARNHTGYQTGVTEFT | -0.526 ± 0.32
102 | LRGEDNLLWCVISMTL | inactive
103 | LRHMLIAAFSDWVKYWGCAR | 0.194 ± 0.51
104 | LRMKVINRNPWVKTLSFVLA | -0.297 ± 1.1
105 | LRNVYMCVQWGFMVETGASC | 3.35 ± 0.16
106 | LRREVINWDQRFSFLKSFTW | 2.89 ± 0.15
107 | LRRLRTSYMLRAVLKLFLQP | 0.956 ± 0.58
108 | LRRLSMA | inactive
109 | LRSCMRGGRKYRDS | -0.903 ± 0.58
110 | LRSKFRCLSILVRMVIIDCF | 0.457 ± 0.62
111 | LRSNHWNHTCLHNIRGCS | 3.42 ± 0.071
112 | LRSSWRTSIWHTWLWPYGDW | 0.287 ± 0.87
113 | LRTCIVGKLNQTTEILCGSS | 1.14 ± 0.73
114 | LRTLPHYNV | 0.596 ± 1.2
115 | LRTMGISCDWETFDLDINKG | inactive
116 | LRWYTQGMVLLEDRPCRCYN | -1.01 ± 0.41
117 | LRYILFKNPSPNNIESL | -0.194 ± 0.53
118 | LRYLGMMVRREKIEVINLNY | 0.329 ± 1.4
119 | LRYLQQWYST | 2.67 ± 0.19
120 | LSCQTPQSDEMSVAESAWAY | -1.18 ± 1.2
121 | LSEKYTIPVLFHVLKIITGI | 0.495 ± 0.45
122 | LSFCDTQRMWSSDG | 0.483 ± 0.85
123 | LSGPCNFYQHSVSWCLCTYA | 0.764 ± 0.88
124 | LSGWRYMVKA | 0.039 ± 0.41
125 | LSHWAIVFVICGPRSKKGGS | -0.115 ± 1

Row | Substance | amyloid nucleation score
126 | LSHWHGCCKSHRYIQF | 0.244 ± 0.3
127 | LSIWFFVYVLVG | 0.043 ± 0.78
128 | LSNFLHCG | 0.907 ± 0.4
129 | LSNRVLEGFNSSWYISIRGF | -0.434 ± 1.7
130 | LSPGYSHTN | -0.423 ± 0.6
131 | LSPLNVKIDSSFVFYIIRLK | -0.178 ± 0.36
132 | LSPSCCCFYVLGIVT | 3.57 ± 0.081
133 | LSQLN | -0.116 ± 0.26
134 | LSRDHCKNLNLNP | -0.084 ± 1.1
135 | LSRNVVGAFGSGHWRADRAA | 0.256 ± 0.64
136 | LSRPTYSRMHIWISCHLIVV | -0.707 ± 1.7
137 | LSRSYYNQFLTDFKGSGTYM | -0.269 ± 0.64
138 | LSSPLLS | 0.66 ± 0.44
139 | LSTGWESNLEGCCENWGGLK | -0.499 ± 0.29
140 | LSTYTMLF | -0.168 ± 0.28
141 | LSVGKKDS | -0.292 ± 0.23
142 | LSVYA | 0.612 ± 0.45
143 | LSYCVIG | inactive
144 | LSYKIKDT | 0.626 ± 0.72
145 | LSYSWADSAPLCCTPMRGRG | -0.324 ± 0.37
146 | LTAIFSRIFNI | -0.997 ± 1.4
147 | LTAYLRGTDSGPERSWRCAS | -0.209 ± 0.88
148 | LTGSISD | 1.17 ± 0.73
149 | LTHWTQHMF | -0.37 ± 0.87
150 | LTHYEFGTFFYKVWSNDRHK | 3.35 ± 0.062

Row | Substance | amyloid nucleation score
151 | LTMGRKMVPYHLVSAMMGTV | -0.114 ± 0.57
152 | LTMPYAI | inactive
153 | LTNIYLVRMT | 5.26 ± 0.071
154 | LTNRSLIVRDWCTSTYPNPS | 0.08 ± 0.53
155 | LTNTGEYQLVSTIPQGRHVV | -0.222 ± 0.36
156 | LTRKTVRKTSKNRIGLHHQT | inactive
157 | LTSRIEWNGHAQSLWWLLSK | 0.711 ± 0.21
158 | LTSRVQCKNNCFSD | 2.38 ± 0.55
159 | LTYATDSFNRNFHILMHHVP | -0.711 ± 0.74
160 | LTYLWFT | -0.095 ± 0.27
161 | LVDCMALLNRYTSRIMDNC | -1.07 ± 0.8
162 | LVDSNFCVNVCAGQSRRVYG | -0.712 ± 0.8
163 | LVELLVWMAGWRCGDFLACR | 0.867 ± 0.58
164 | LVFKLLVLDHKSFGLLMVDS | -0.355 ± 0.63
165 | LVFTCVGCWYQGKLWNE | 4.25 ± 0.12
166 | LVHMIAYAVGNLMCIRPLLI | -0.467 ± 0.43
167 | LVHPQVSVGS | 0.632 ± 0.74
168 | LVHRRFMESDISGLCCALLW | -0.224 ± 1.4
169 | LVHSFMW | 0.876 ± 0.51
170 | LVHTDTNLVF | inactive
171 | LVHVGSQHKTFTPCSMEFLI | inactive
172 | LVLFVTFGWCIDELRWMKRR | -0.51 ± 2.1
173 | LVLGWRFIVPRVNLISLGFV | inactive
